# Source: US20240117334A1, “FACTOR B PROTEASES” (Vertex Pharmaceuticals Incorporated, priority 2021, published 2024)
# B1: chymase C22S/D175N/A226R (enzyme)
# chain: IIGGTESKPHSRPYMAYLEIVTSNGPSKFCGGFLIRRNFVLTAAHCAGRSITVTLGAHNITEEEDTWQKLEVIKQFRHPKYNTSTLHHDIMLLKLKEKASLTLAVGTLPFPSQFNFVPPGRMCRVAGWGRTGVLKPGSDTLQEVKLRLMDPQACSHFRNFDHNLQLCVGNPRKTKSAFKGDSGGPLLCAGVAQGIVSYGRSDAKPPRVFTRISHYRPWINQILQAN
# B2: chymase C22S/V138A/G145D/S189T/A190S/A226R (enzyme)
# chain: IIGGTESKPHSRPYMAYLEIVTSNGPSKFCGGFLIRRNFVLTAAHCAGRSITVTLGAHNITEEEDTWQKLEVIKQFRHPKYNTSTLHHDIMLLKLKEKASLTLAVGTLPFPSQFNFVPPGRMCRAAGWGRTDVLKPGSDTLQEVKLRLMDPQACSHFRDFDHNLQLCVGNPRKTKTSFKGDSGGPLLCAGVAQGIVSYGRSDAKPPRVFTRISHYRPWINQILQAN
# B3: chymase C22S/V138S/S189T/A226R/F228M (enzyme)
# chain: IIGGTESKPHSRPYMAYLEIVTSNGPSKFCGGFLIRRNFVLTAAHCAGRSITVTLGAHNITEEEDTWQKLEVIKQFRHPKYNTSTLHHDIMLLKLKEKASLTLAVGTLPFPSQFNFVPPGRMCRSAGWGRTGVLKPGSDTLQEVKLRLMDPQACSHFRDFDHNLQLCVGNPRKTKTAFKGDSGGPLLCAGVAQGIVSYGRSDAKPPRVMTRISHYRPWINQILQAN
# B4: chymase C22S/V138T/A190S/V213A/A226R (enzyme)
# chain: IIGGTESKPHSRPYMAYLEIVTSNGPSKFCGGFLIRRNFVLTAAHCAGRSITVTLGAHNITEEEDTWQKLEVIKQFRHPKYNTSTLHHDIMLLKLKEKASLTLAVGTLPFPSQFNFVPPGRMCRTAGWGRTGVLKPGSDTLQEVKLRLMDPQACSHFRDFDHNLQLCVGNPRKTKSSFKGDSGGPLLCAGVAQGIASYGRSDAKPPRVFTRISHYRPWINQILQAN
# B5: chymase C22S/S189T/A190S/F191S/A220L/A226R (enzyme)
# chain: IIGGTESKPHSRPYMAYLEIVTSNGPSKFCGGFLIRRNFVLTAAHCAGRSITVTLGAHNITEEEDTWQKLEVIKQFRHPKYNTSTLHHDIMLLKLKEKASLTLAVGTLPFPSQFNFVPPGRMCRVAGWGRTGVLKPGSDTLQEVKLRLMDPQACSHFRDFDHNLQLCVGNPRKTKTSSKGDSGGPLLCAGVAQGIVSYGRSDLKPPRVFTRISHYRPWINQILQAN
# B6: chymase C22S/A226R/F228A (enzyme)
# chain: IIGGTESKPHSRPYMAYLEIVTSNGPSKFCGGFLIRRNFVLTAAHCAGRSITVTLGAHNITEEEDTWQKLEVIKQFRHPKYNTSTLHHDIMLLKLKEKASLTLAVGTLPFPSQFNFVPPGRMCRVAGWGRTGVLKPGSDTLQEVKLRLMDPQACSHFRDFDHNLQLCVGNPRKTKSAFKGDSGGPLLCAGVAQGIVSYGRSDAKPPRVATRISHYRPWINQILQAN
# B7: chymase C22S/F41K/L99N/F173Y/D175N/S218L/A226R (enzyme)
# chain: IIGGTESKPHSRPYMAYLEIVTSNGPSKKCGGFLIRRNFVLTAAHCAGRSITVTLGAHNITEEEDTWQKLEVIKQFRHPKYNTSTNHHDIMLLKLKEKASLTLAVGTLPFPSQFNFVPPGRMCRVAGWGRTGVLKPGSDTLQEVKLRLMDPQACSHYRNFDHNLQLCVGNPRKTKSAFKGDSGGPLLCAGVAQGIVSYGRLDAKPPRVFTRISHYRPWINQILQAN
# B8: chymase C22S/K40L/F41K/L99N/D175N/S218L/A226R (enzyme)
# chain: IIGGTESKPHSRPYMAYLEIVTSNGPSLKCGGFLIRRNFVLTAAHCAGRSITVTLGAHNITEEEDTWQKLEVIKQFRHPKYNTSTNHHDIMLLKLKEKASLTLAVGTLPFPSQFNFVPPGRMCRVAGWGRTGVLKPGSDTLQEVKLRLMDPQACSHFRNFDHNLQLCVGNPRKTKSAFKGDSGGPLLCAGVAQGIVSYGRLDAKPPRVFTRISHYRPWINQILQAN
# B9: chymase C22S/P38Q/V138I/A226R/F228A (enzyme)
# chain: IIGGTESKPHSRPYMAYLEIVTSNGQSKFCGGFLIRRNFVLTAAHCAGRSITVTLGAHNITEEEDTWQKLEVIKQFRHPKYNTSTLHHDIMLLKLKEKASLTLAVGTLPFPSQFNFVPPGRMCRIAGWGRTGVLKPGSDTLQEVKLRLMDPQACSHFRDFDHNLQLCVGNPRKTKSAFKGDSGGPLLCAGVAQGIVSYGRSDAKPPRVATRISHYRPWINQILQAN
# B10: chymase C22S/K40M/F41V/L99N/G151R/F173S/S218E/A226R (enzyme)
# chain: IIGGTESKPHSRPYMAYLEIVTSNGPSMVCGGFLIRRNFVLTAAHCAGRSITVTLGAHNITEEEDTWQKLEVIKQFRHPKYNTSTNHHDIMLLKLKEKASLTLAVGTLPFPSQFNFVPPGRMCRVAGWGRTGVLKPRSDTLQEVKLRLMDPQACSHSRDFDHNLQLCVGNPRKTKSAFKGDSGGPLLCAGVAQGIVSYGREDAKPPRVFTRISHYRPWINQILQAN
# B11: chymase C22S/V138A/S189T/A226R/F228M (enzyme)
# chain: IIGGTESKPHSRPYMAYLEIVTSNGPSKFCGGFLIRRNFVLTAAHCAGRSITVTLGAHNITEEEDTWQKLEVIKQFRHPKYNTSTLHHDIMLLKLKEKASLTLAVGTLPFPSQFNFVPPGRMCRAAGWGRTGVLKPGSDTLQEVKLRLMDPQACSHFRDFDHNLQLCVGNPRKTKTAFKGDSGGPLLCAGVAQGIVSYGRSDAKPPRVMTRISHYRPWINQILQAN
# B12: chymase C22S/K40L/F41K/F173Y/D175N/S218L/A226R (enzyme)
# chain: IIGGTESKPHSRPYMAYLEIVTSNGPSLKCGGFLIRRNFVLTAAHCAGRSITVTLGAHNITEEEDTWQKLEVIKQFRHPKYNTSTLHHDIMLLKLKEKASLTLAVGTLPFPSQFNFVPPGRMCRVAGWGRTGVLKPGSDTLQEVKLRLMDPQACSHYRNFDHNLQLCVGNPRKTKSAFKGDSGGPLLCAGVAQGIVSYGRLDAKPPRVFTRISHYRPWINQILQAN
# B13: chymase C22S/K40L/L99N/F173Y/D175N/S218L/A226R (enzyme)
# chain: IIGGTESKPHSRPYMAYLEIVTSNGPSLFCGGFLIRRNFVLTAAHCAGRSITVTLGAHNITEEEDTWQKLEVIKQFRHPKYNTSTNHHDIMLLKLKEKASLTLAVGTLPFPSQFNFVPPGRMCRVAGWGRTGVLKPGSDTLQEVKLRLMDPQACSHYRNFDHNLQLCVGNPRKTKSAFKGDSGGPLLCAGVAQGIVSYGRLDAKPPRVFTRISHYRPWINQILQAN
# B14: chymase C22S/V138L/S189T/A190G/A226R (enzyme)
# chain: IIGGTESKPHSRPYMAYLEIVTSNGPSKFCGGFLIRRNFVLTAAHCAGRSITVTLGAHNITEEEDTWQKLEVIKQFRHPKYNTSTLHHDIMLLKLKEKASLTLAVGTLPFPSQFNFVPPGRMCRLAGWGRTGVLKPGSDTLQEVKLRLMDPQACSHFRDFDHNLQLCVGNPRKTKTGFKGDSGGPLLCAGVAQGIVSYGRSDAKPPRVFTRISHYRPWINQILQAN
# B15: chymase C22S/A220S/A226R (enzyme)
# chain: IIGGTESKPHSRPYMAYLEIVTSNGPSKFCGGFLIRRNFVLTAAHCAGRSITVTLGAHNITEEEDTWQKLEVIKQFRHPKYNTSTLHHDIMLLKLKEKASLTLAVGTLPFPSQFNFVPPGRMCRVAGWGRTGVLKPGSDTLQEVKLRLMDPQACSHFRDFDHNLQLCVGNPRKTKSAFKGDSGGPLLCAGVAQGIVSYGRSDSKPPRVFTRISHYRPWINQILQAN
# B16: chymase C22S/K40M/F41I/L99H/G151R/F173S/S218L/A226R (enzyme)
# chain: IIGGTESKPHSRPYMAYLEIVTSNGPSMICGGFLIRRNFVLTAAHCAGRSITVTLGAHNITEEEDTWQKLEVIKQFRHPKYNTSTHHHDIMLLKLKEKASLTLAVGTLPFPSQFNFVPPGRMCRVAGWGRTGVLKPRSDTLQEVKLRLMDPQACSHSRDFDHNLQLCVGNPRKTKSAFKGDSGGPLLCAGVAQGIVSYGRLDAKPPRVFTRISHYRPWINQILQAN
# B17: chymase C22S/K40M/F41R/L99H/F173Y/D175W/S218L/A226R (enzyme)
# chain: IIGGTESKPHSRPYMAYLEIVTSNGPSMRCGGFLIRRNFVLTAAHCAGRSITVTLGAHNITEEEDTWQKLEVIKQFRHPKYNTSTHHHDIMLLKLKEKASLTLAVGTLPFPSQFNFVPPGRMCRVAGWGRTGVLKPGSDTLQEVKLRLMDPQACSHYRWFDHNLQLCVGNPRKTKSAFKGDSGGPLLCAGVAQGIVSYGRLDAKPPRVFTRISHYRPWINQILQAN
# B18: chymase C22S/S189T/A226R/F228M (enzyme)
# chain: IIGGTESKPHSRPYMAYLEIVTSNGPSKFCGGFLIRRNFVLTAAHCAGRSITVTLGAHNITEEEDTWQKLEVIKQFRHPKYNTSTLHHDIMLLKLKEKASLTLAVGTLPFPSQFNFVPPGRMCRVAGWGRTGVLKPGSDTLQEVKLRLMDPQACSHFRDFDHNLQLCVGNPRKTKTAFKGDSGGPLLCAGVAQGIVSYGRSDAKPPRVMTRISHYRPWINQILQAN
# B19: chymase C22S/V138A/A226R (enzyme)
# chain: IIGGTESKPHSRPYMAYLEIVTSNGPSKFCGGFLIRRNFVLTAAHCAGRSITVTLGAHNITEEEDTWQKLEVIKQFRHPKYNTSTLHHDIMLLKLKEKASLTLAVGTLPFPSQFNFVPPGRMCRAAGWGRTGVLKPGSDTLQEVKLRLMDPQACSHFRDFDHNLQLCVGNPRKTKSAFKGDSGGPLLCAGVAQGIVSYGRSDAKPPRVFTRISHYRPWINQILQAN
# B20: chymase C22S/K40M/F41R/L99N/F173Y/D175S/S218L/A226R (enzyme)
# chain: IIGGTESKPHSRPYMAYLEIVTSNGPSMRCGGFLIRRNFVLTAAHCAGRSITVTLGAHNITEEEDTWQKLEVIKQFRHPKYNTSTNHHDIMLLKLKEKASLTLAVGTLPFPSQFNFVPPGRMCRVAGWGRTGVLKPGSDTLQEVKLRLMDPQACSHYRSFDHNLQLCVGNPRKTKSAFKGDSGGPLLCAGVAQGIVSYGRLDAKPPRVFTRISHYRPWINQILQAN
# B21: chymase C22S/V138A/S189T/A226R (enzyme)
# chain: IIGGTESKPHSRPYMAYLEIVTSNGPSKFCGGFLIRRNFVLTAAHCAGRSITVTLGAHNITEEEDTWQKLEVIKQFRHPKYNTSTLHHDIMLLKLKEKASLTLAVGTLPFPSQFNFVPPGRMCRAAGWGRTGVLKPGSDTLQEVKLRLMDPQACSHFRDFDHNLQLCVGNPRKTKTAFKGDSGGPLLCAGVAQGIVSYGRSDAKPPRVFTRISHYRPWINQILQAN
# B22: chymase C22S/K40L/F41K/L99N/F173Y/D175N/A226R (enzyme)
# chain: IIGGTESKPHSRPYMAYLEIVTSNGPSLKCGGFLIRRNFVLTAAHCAGRSITVTLGAHNITEEEDTWQKLEVIKQFRHPKYNTSTNHHDIMLLKLKEKASLTLAVGTLPFPSQFNFVPPGRMCRVAGWGRTGVLKPGSDTLQEVKLRLMDPQACSHYRNFDHNLQLCVGNPRKTKSAFKGDSGGPLLCAGVAQGIVSYGRSDAKPPRVFTRISHYRPWINQILQAN
# Target: Human Factor B (human) (UniProt P00751)
# Assay: cell-based or functional assay
# Human Factor B (human), sequence (P00751 26-764 limits assumed): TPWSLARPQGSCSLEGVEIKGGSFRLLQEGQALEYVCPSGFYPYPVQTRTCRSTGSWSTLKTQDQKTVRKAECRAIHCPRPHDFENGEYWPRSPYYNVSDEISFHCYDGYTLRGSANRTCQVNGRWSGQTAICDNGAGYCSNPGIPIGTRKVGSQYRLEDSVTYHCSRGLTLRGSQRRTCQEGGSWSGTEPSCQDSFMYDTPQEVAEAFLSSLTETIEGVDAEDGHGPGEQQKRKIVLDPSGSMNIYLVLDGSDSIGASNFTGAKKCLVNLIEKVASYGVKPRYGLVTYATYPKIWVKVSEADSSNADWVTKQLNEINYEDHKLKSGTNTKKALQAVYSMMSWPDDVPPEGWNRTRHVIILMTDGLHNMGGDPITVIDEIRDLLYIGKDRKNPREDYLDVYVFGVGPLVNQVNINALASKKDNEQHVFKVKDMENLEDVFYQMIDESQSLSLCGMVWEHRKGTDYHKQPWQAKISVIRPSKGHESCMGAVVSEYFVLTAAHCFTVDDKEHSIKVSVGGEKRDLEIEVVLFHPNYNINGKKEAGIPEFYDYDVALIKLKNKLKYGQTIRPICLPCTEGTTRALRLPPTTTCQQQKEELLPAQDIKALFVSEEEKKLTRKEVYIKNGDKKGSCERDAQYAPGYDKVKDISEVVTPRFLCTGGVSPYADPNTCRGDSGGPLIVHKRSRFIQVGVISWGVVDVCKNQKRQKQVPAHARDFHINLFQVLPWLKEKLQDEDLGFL
Binder,fB Cleavage EC50,"fB Cleavage, 80% plasma EC50"
B1,0.564 µM,7.77 µM
B2,3.81 µM,
B3,2.98 µM,
B4,6.71 µM,
B5,8.14 µM,
B6,5.07 µM,
B7,0.077 µM,
B8,0.295 µM,
B9,12.4 µM,
B10,11.8 µM,
B11,1.77 µM,
B12,0.077 µM,
B13,0.113 µM,
B14,4.16 µM,
B15,5.56 µM,
B16,8.2 µM,
B17,0.181 µM,7.21 µM
B18,1.55 µM,
B19,2.94 µM,
B20,0.23 µM,5.14 µM
B21,4.42 µM,
B22,0.151 µM,
